This series can be described thus: protein stability index of a GFP-peptide fusion (GPS, HEK-293T) (PSI 1-6); higher = more stable.
[1] abbreviates: treatment: DMSO, c terminus: a fixed tail appended.
Setting [2] is: treatment: MLN4924 1 uM, 8 h, c terminus: a fixed tail appended.

± gives the standard deviation.
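Also: 24-mer peptide tiles fused after GFP, lentivirally expressed, FACS-sorted into six equal bins by GFP/DsRed ratio, decoded by Illumina sequencing, PSI is the read-weighted mean bin number.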

For the sequence SGGRGPQGDKAIREQGPREQEPEL [PBXIP1], the protein stability index came to 5.44 ± 0.19 under setting [1] and 5.5 ± 0.25 under setting [2].
Taken in the same sequence, the figures for EMRFAKMPDEPVEAPALPAPAAPM [BRD3] were 4.66 ± 0.078 and 4.8 ± 0.24.
Turning to APAPSQVKSKAKKTVDKHSDEYKI [CEBPB], the protein stability index by setting is: under setting [1], 5.36 ± 0.17; under setting [2], 5.37 ± 0.25.
Taken in the same sequence, the figures for APIRVRNLTIRAGALTGKENNMLQ [DMRTC1] were 3.46 ± 0.23 and 3.26 ± 0.19.
For the sequence DENYNLLPHGVNFQDAIFPDTQEN [CCDC3], the protein stability index runs as follows: under setting [1], 4.92 ± 0.29; under setting [2], 5.06 ± 0.21.
The like results for PISPSTEVGGSGIGTPPSVLKRQR [MYBL2] were, in that order, 5.36 ± 0.24 and 4.97 ± 0.36.
Turning to QRPVSRQVTCLRTQVLEDSEDSFC [TRAF3IP2], the protein stability index by setting is: under setting [1], 4.68 ± 0.19; under setting [2], 4.53 ± 0.14.
For EGLYEQAFQLLRRFVQAEGRRATL [TRADD], the protein stability index reads like this: under setting [1], 2.28 ± 0.13; under setting [2], 2.23 ± 0.54.
Turning to GDLQDTKENREEARFQDKQYSSHH [CHGB], the protein stability index was 5.18 ± 0.21 under setting [1] and 5.02 ± 0.35 under setting [2].
Regarding VISPVIQLQPTFTPMRVALAGTFH [NSDHL], the protein stability index by setting is: under setting [1], 2.42 ± 0.54; under setting [2], 2.1 ± 0.11.
The like results for GELRSKSGHKLYIFLFQDILVLTR [NET1] were, in that order, 2.5 ± 0.66 and 1.75 ± 0.27.
As to HKRISAFRALQHSYLHKDEGNPE [CDK4], the protein stability index by setting is: (treatment: DMSO, c terminus: native) 4.15 ± 0.26; (treatment: MLN4924 1 uM, 8 h, c terminus: native) 4.04 ± 0.47.
For the sequence EEEPGVRNGMASEGLNSSLCSPGH [PSD2], the protein stability index under setting [1] was determined as 5.1 ± 0.23 and the protein stability index under setting [2] was 5.26 ± 0.13.
Take VLQIDNARLAADDFRVKYETELAM [KRT18]: the protein stability index stood at 3.04 ± 0.12 under setting [1] and 3.3 ± 0.33 under setting [2].
Turning to YYSPILDQWTPIAAMLRGQSDVGV [KLHL13], the protein stability index was 2.4 ± 0.3 under setting [1] and 2.26 ± 0.3 under setting [2].
As to LDPRYKRLPFLSAFERQQVENRVV [ZBED1], the protein stability index reads like this: under setting [1], 3.36 ± 0.091; under setting [2], 3.47 ± 0.13.
In the case of RPVNKLAELQCEVAALREEQKVLS [RASAL3], the protein stability index was found to be 3.99 ± 0.35 under setting [1] and 4.19 ± 0.26 under setting [2].
Consider RGRAREREQLQAEASERFAAGYIQ [HES6], for which the protein stability index is, setting by setting: under setting [1], 4.58 ± 0.2; under setting [2], 4.57 ± 0.1.
In the case of VVVFKALVTTHHLMVHGNERFIQY [SNAP91], the protein stability index runs as follows: under setting [1], 3.2 ± 0.42; under setting [2], 3.02 ± 0.5.
The like results for LSSSEGLEPGSADPLANGCQGVSE [PSD2] were, in that order, 5.39 ± 0.24 and 5.49 ± 0.12.
Consider GLDIGAQGEPLGYRQDDPSYRSFH [CTNNB1], for which the protein stability index is, setting by setting: under setting [1], 4.14 ± 0.12; under setting [2], 4.22 ± 0.19.
VAEKVVVITKHNDDEQYAWESSAG [HSP90AB1]: the protein stability index came to 4.53 ± 0.11 under setting [1] and 4.34 ± 0.29 under setting [2].
Taken in the same sequence, the figures for LREAEIARIRDEEAQRASFLQNAV [LRRC45] were 4.37 ± 0.18 and 4.43 ± 0.27.
On to SPGGTLMDLSERQEVSSVRSLSST [DLC1], for which the protein stability index is, setting by setting: under setting [1], 4.61 ± 0.24; under setting [2], 4.85 ± 0.2.
Taken in the same sequence, the figures for LLPMLDALRFTADVRSVLSRNLHQ [CTDNEP1] were 2.5 ± 0.37 and 2.1 ± 0.21.
As to RFTRTPVDQTGVSGGVASFICQAT [PTPRD], the protein stability index reads like this: under setting [1], 3.12 ± 0.28; under setting [2], 3.19 ± 0.37.
The like results for LVLLRQMLLELTRRGQEPLSALLQ [BCL2L13] were, in that order, 2.37 ± 0.22 and 2.62 ± 0.48.
For MLASVESVPFSFDPNTAAGWLSVS [TRIM35], the protein stability index is, setting by setting: under setting [1], 2.31 ± 0.22; under setting [2], 2.33 ± 0.28.
The like results for RHDSETEDMLWDDLLHGPECRSSV [PHTF1] were, in that order, 4.68 ± 0.24 and 4.7 ± 0.2.
Taken in the same sequence, the figures for ADLLEEEVIISWSEKASKKYVSKE [EIF5] were 3.98 ± 0.31 and 4.16 ± 0.41.
Turning to DDATLSRLELERKIESLMDEIEFL [PRPH], the protein stability index under setting [1] was 4 ± 0.23 and the protein stability index under setting [2] turned out to be 3.88 ± 0.28.
The like results for NVQRLAEPSQMLKHAVVNLINYQD [CTNNB1] were, in that order, 2.66 ± 0.18 and 2.83 ± 0.12.
As to LGLGSMIGTMAGITTPIIDTFKVP [SLC6A17], the protein stability index reads like this: under setting [1], 2.55 ± 0.12; under setting [2], 2.51 ± 0.31.
Take NIEEIDEIPLVIKYKKAVGLKLKQ [WDR88]: the protein stability index runs as follows: under setting [1], 2.78 ± 0.19; under setting [2], 2.91 ± 0.28.
As to RMENVTVLGEDVIVNDELYLNGAS [GMPPB], the protein stability index is 4.09 ± 0.072 under setting [1] and 4.1 ± 0.29 under setting [2].
Taken in the same sequence, the figures for MSLEGTEKASWLGEQPQFWSKTQV [ELF3] were 3.31 ± 0.42 and 3.33 ± 0.16.
For SSGRKWGDDAPKEEVDTGAVNLIE [INTS4], the protein stability index is 5.22 ± 0.6 under setting [1] and 5.21 ± 0.13 under setting [2].
Taken in the same sequence, the figures for RVQPVKDTAHDFRAKCRNMEHALR [TRIM35] were 2.96 ± 0.44 and 3.25 ± 0.36.
Consider PDDYRCSYRIHNGQKLVVPGLLGS [FBXO3], for which the protein stability index under setting [1] came to 2.68 ± 0.46 and the protein stability index under setting [2] was determined as 2.66 ± 0.34.
The like results for VTLGGVLRQQLVVSKELRMYDEKA [KLHL13] were, in that order, 2.95 ± 0.25 and 3.02 ± 0.41.
Taken in the same sequence, the figures for INPFTPDSLLLHSSGQCRRRKRTY [WEE1] were 3.62 ± 0.4 and 3.83 ± 0.41.
In the case of TSTKTDSEEGSWAQTLAYGDMNHE [PPFIA4], the protein stability index under setting [2] came to 4.66 ± 0.54.
Sequence DWVVVKEPVIKVAAIDNGLAFPLK [PI4K2A] came in with a protein stability index under setting [1] of 2.52 ± 0.43 and a protein stability index under setting [2] of 2.94 ± 0.29.
In the case of FTEAMTHFPASPFWSVMFFLMLIN [SLC6A17], the protein stability index reads like this: under setting [1], 2.36 ± 0.23; under setting [2], 2.14 ± 0.56.
Regarding PVPGKTLHLPIMGVVMKVRIPTCH [DENND6A], the protein stability index stood at 2.43 ± 0.72 under setting [1] and 2.45 ± 0.38 under setting [2].
Regarding LQFLYTGQLDEKEKDLVGLAQIAE [RHOBTB1], the protein stability index under setting [1] is 2.38 ± 0.29 and the protein stability index under setting [2] stood at 2.83 ± 0.25.
The like results for GRKPERRRLKTTRLKEYTIKSHSS [DAPK3] were, in that order, 3.92 ± 0.17 and 4.06 ± 0.29.
For LRYVNSTRAPQRAHEVLQELRDIS [FBXO28], the protein stability index reads like this: under setting [1], 3.09 ± 0.21; under setting [2], 3.35 ± 0.28.
Taken in the same sequence, the figures for LKEGMLMKIKQDRASRTYELQNQL [FSD1] were 3.05 ± 0.35 and 3.39 ± 0.19.
Taken in the same sequence, the figures for FPDLNTYIYYNEKYGGPNHHLPLP [CPN1] were 2.15 ± 0.17 and 2.42 ± 0.096.
The like results for NGSSEKREVRQFQFTAWPDHGVPE [PTPRD] were, in that order, 4.41 ± 0.14 and 4.43 ± 0.19.
Take MDMDQDSEEEKELYLNLALHLASD [PDS5B]: the protein stability index came out at 3.82 ± 0.23 under setting [1] and 4.04 ± 0.081 under setting [2].
Sequence VVDKETDNMYRLAHFSPFLYYQSQ [PDZK1] gave a protein stability index under setting [1] of 2.62 ± 0.35.
Regarding EVREPALRPAKRELRGAEPGRPAR [SPSB4], the protein stability index reads like this: under setting [1], 4.48 ± 0.39; under setting [2], 4.9 ± 0.22.
PSEDIWKKFELVPSPPTSPPWGLG [MYCL]: the protein stability index under setting [1] turned out to be 3.04 ± 0.36 and the protein stability index under setting [2] came to 2.9 ± 0.37.
Turning to GSLGSRAEPAPRAREGGGCGRSEV [SMAD6], the protein stability index by setting is: under setting [1], 4.84 ± 0.15; under setting [2], 4.92 ± 0.11.
For the sequence HVAPLLAAAGLHASPMSADRVVAF [NR2F2], the protein stability index worked out at 2.27 ± 0.43 under setting [1] and 2.24 ± 0.27 under setting [2].
For DKWVNDPHRMDRRLLALIYLAHAS [GOLPH3], the protein stability index is, setting by setting: under setting [1], 2.63 ± 0.91; under setting [2], 2.1 ± 0.31.
On to PCSVIRPILKRLERPQDRDTPVQN [CDC25B], for which the protein stability index was found to be 4.31 ± 0.15 under setting [1] and 4.51 ± 0.066 under setting [2].
The like results for FGHLINGAIAVFVYASDKEWIRFD [PTGFR] were, in that order, 3.1 ± 0.29 and 3.1 ± 0.38.
Taken in the same sequence, the figures for MDLRTAVYNAARDGKLQLLQKLLS [FEM1A] were 2.21 ± 0.26 and 2.28 ± 0.24.
The like results for GGDHRYVNNYTNSFGGEWSAPDTM [TRIM29] were, in that order, 3.51 ± 0.44 and 3.51 ± 0.32.
In the case of RGDPLGGCQVSPEGYAHLTHLLMG [HDAC6], the protein stability index turned out to be 2.35 ± 0.31 under setting [1] and 2.71 ± 0.47 under setting [2].
Taken in the same sequence, the figures for GSNGYILNKPALQAQPLRTTSTLA [EHMT1] were 3.59 ± 0.36 and 3.44 ± 0.17.
Taken in the same sequence, the figures for ISDFGRQQLLPPFPSLHQSLPQNQ [EHMT1] were 3.45 ± 0.14 and 3.28 ± 0.23.
Taken in the same sequence, the figures for MAEQSDEAVKYYTLEEIQKHNHSK [CYB5A] were 5.31 ± 0.24 and 5.28 ± 0.19.
Take QDLKYISPEIMASVLNGKFANLIK [CDC25A]: the protein stability index was determined as 2.21 ± 0.22 under setting [1] and 2.24 ± 0.17 under setting [2].
As for LLTNNSGTPKDHDSPENGADSFES [ETS2], the protein stability index worked out at 5.2 ± 0.26 under setting [1] and 5.22 ± 0.12 under setting [2].
Taken in the same sequence, the figures for MDSAGQDINLNSPNKGLLSDSMTD [TPD52L2] were 5.32 ± 0.2 and 5.25 ± 0.2.
Taken in the same sequence, the figures for KLLNRCCHLFSTYVASHKIEKEEQ [ACBD3] were 2.21 ± 0.1 and 2.23 ± 0.28.
Turning to ETENIIAANHWVLPAAEFHGLWDS [TRIP13], the protein stability index reads like this: under setting [1], 3.28 ± 0.29; under setting [2], 3.36 ± 0.26.
Taken in the same sequence, the figures for SKSCMRAVLEYLYTGMFTSSPDLD [RHOBTB2] were 2.28 ± 0.039 and 2.05 ± 0.49.
Taken in the same sequence, the figures for APLQADLTEQVWKVQDALQNQSDS [SCARA5] were 5.26 ± 0.24 and 5.24 ± 0.28.

For the origin of these results see the supplement of paper PMC10567573.
